Earlier results on three substances are cited in PMC6082625.

Like-named read-outs stand apart in the source and are kept apart here.

As usually defined, the Kd is the constant that tells how readily two partners part at equilibrium.

The target in series [1] is Hsp90 (Homo sapiens) (UniProt P07900).
Series [2] concerns the target J-domain protein (DnaJ) J domain (Escherichia coli) (UniProt P08622).
The target of series [3] is Hsp90 (Homo sapiens) (UniProt P07900). This is another data set of the same source.

Sequence of Hsp70 (DnaK) (P0A6Y8 2-638): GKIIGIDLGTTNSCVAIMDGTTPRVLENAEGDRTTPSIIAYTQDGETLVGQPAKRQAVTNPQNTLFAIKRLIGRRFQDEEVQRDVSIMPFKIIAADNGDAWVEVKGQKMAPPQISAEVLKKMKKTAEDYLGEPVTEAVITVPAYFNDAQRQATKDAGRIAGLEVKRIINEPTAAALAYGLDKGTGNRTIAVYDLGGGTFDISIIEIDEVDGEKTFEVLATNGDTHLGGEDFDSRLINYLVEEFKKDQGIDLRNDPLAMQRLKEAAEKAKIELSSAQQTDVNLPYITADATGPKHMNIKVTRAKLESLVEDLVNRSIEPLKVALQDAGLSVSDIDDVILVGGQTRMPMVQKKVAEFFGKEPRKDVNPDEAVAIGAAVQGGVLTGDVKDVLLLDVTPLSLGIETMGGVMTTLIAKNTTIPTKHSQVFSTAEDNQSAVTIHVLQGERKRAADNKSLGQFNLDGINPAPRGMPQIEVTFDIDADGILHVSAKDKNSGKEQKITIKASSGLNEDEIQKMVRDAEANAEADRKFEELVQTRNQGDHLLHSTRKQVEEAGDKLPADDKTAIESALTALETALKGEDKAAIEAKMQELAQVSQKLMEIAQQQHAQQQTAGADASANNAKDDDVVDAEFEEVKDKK
Sequence of J-domain protein (DnaJ) J domain (Escherichia coli) (P08622 1-75): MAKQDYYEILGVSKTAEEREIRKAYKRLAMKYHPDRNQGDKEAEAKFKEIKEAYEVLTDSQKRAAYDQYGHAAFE
Sequence of Aha1 (O95433 whole entry): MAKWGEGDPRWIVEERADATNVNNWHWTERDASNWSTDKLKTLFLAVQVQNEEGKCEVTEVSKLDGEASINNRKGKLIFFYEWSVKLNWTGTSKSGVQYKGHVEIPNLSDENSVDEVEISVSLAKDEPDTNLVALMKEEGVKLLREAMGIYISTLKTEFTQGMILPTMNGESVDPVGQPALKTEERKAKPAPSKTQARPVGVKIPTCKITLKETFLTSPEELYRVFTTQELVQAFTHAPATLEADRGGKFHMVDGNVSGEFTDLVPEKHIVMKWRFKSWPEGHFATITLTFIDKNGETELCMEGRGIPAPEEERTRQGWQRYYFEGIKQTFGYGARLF
Sequence of p23 (Q15185 whole entry): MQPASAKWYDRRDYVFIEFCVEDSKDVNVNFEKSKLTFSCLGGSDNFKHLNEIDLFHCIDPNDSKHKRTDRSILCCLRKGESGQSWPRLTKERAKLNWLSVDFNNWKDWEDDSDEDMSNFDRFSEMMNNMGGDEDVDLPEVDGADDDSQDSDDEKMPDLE

With Aha1 (from UniProt O95433), the Kd with Hsp90 (Homo sapiens) [1] was 700 nM.

With Hsp70 (DnaK) (from UniProt P0A6Y8), the Kd in series [2] was 10000 nM.

For the substance p23 (from UniProt Q15185), in the series with Hsp90 (Homo sapiens) [3], the Kd is 1000 nM.
